These results are taken from patent US20060234940A1.

Experiment [1] has as its target recombinant human DP IV, wild type (human) (UniProt P27487). The experiment is described as follows: MALDI-TOF MS, inhibition of DP IV-catalyzed truncation of the substrate GIP after preincubation with TFTSDY.
Experiment [2] shares this target. The experiment is described as follows: MALDI-TOF MS, inhibition of DP IV-catalyzed truncation of the substrate PACAP-27 after preincubation with TFTSDY.
Experiment [3] shares this target. Nature of the experiment: MALDI-TOF MS, inhibition of DP IV-catalyzed truncation of the substrate PACAP-38 after preincubation with TFTSDY.
Experiment [4] shares this target. Nature of the experiment: MALDI-TOF MS, inhibition of DP IV-catalyzed truncation of the substrate glucagon after preincubation with TFTSDY.
The target is the same in experiment [5]. The experiment is described as follows: photometric assay, competition with the standard substrate GP-4NA.

Where no end group is shown, it is not given here. The star is where a group is joined. Thia = thiazolidide, C1CN(*)CS1

Sequence of recombinant human DP IV, wild type (human) (P27487 other isoform, or with tags, fused parts or gaps): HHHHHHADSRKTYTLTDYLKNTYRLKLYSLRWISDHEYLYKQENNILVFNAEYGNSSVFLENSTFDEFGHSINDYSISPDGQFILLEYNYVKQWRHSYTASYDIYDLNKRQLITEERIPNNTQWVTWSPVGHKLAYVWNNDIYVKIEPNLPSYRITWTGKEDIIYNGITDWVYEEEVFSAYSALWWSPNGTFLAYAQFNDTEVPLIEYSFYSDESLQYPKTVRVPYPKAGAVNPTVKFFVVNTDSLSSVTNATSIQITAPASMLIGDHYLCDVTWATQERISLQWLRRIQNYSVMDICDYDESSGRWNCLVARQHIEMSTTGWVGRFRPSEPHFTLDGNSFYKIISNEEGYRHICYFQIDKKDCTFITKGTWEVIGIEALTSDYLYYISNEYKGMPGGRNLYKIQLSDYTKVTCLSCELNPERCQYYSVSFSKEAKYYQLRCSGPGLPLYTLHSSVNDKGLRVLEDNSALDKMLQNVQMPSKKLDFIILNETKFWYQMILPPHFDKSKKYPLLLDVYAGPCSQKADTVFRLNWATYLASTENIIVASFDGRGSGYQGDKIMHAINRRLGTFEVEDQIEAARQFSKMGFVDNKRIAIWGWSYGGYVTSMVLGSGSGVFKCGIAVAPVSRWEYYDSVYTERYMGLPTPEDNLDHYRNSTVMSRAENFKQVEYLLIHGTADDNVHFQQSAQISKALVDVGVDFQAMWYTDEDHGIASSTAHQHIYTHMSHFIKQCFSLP

One may read the Ki as a dissociation constant, usually derived from enzyme kinetics or from competition with a known ligand. In the case of TFTSDY [hexapeptide TFTSDY], the Ki in experiment [1] is 14 µM; in experiment [2], 26.7 µM; in experiment [3], 2800 nM; in experiment [4], 3.7 µM. HSDGIFTDSYSRYRKQMAVKKYLAAVLGKRYKQRVKNK (peptide, UniProt P18509 132-169, looked up, ends and bridges not checked) [PACAP-38]: the Ki in experiment [5] was determined as 38300 nM.

For YAESTF-NH2 [YAESTF amide], the Ki in experiment [5] was 35.1 nM. The same measure, in the same setting: then RRLSYSRRRFE-Thia (also: linkage of decapeptide to Glu not explained) [Transp 01 (…-E-Thia)], with 50.8 nM.
